This data set in a line: soluble on expression in E. coli; label from the status in PepcDB or PDB records.
Turning to “ISSEQDAINNRFLPTTDRFSERGSYGNFNYAAYQPEAAIGGEKNPLIVWLHGIGEVGTDINIPLLASNVARLTEDPIQSHFTSTGSGGQKGAYVLVPQSSIPWSQNQTASLMALIKAYVASHPDIDSRRIYLAGVSNGGGMTLDMGVAYPNYFAALVPIAASYSNQLTDNQITAAALKALKGQPMWLIHTRTDKTISADSSVLPFYKELLQAGAQNKWLSYYETNVGKHHSGVTYNGHWSWIYFLNDQV”, the “soluble on expression in E. coli” value is reported as “not soluble”.

As to “ITTKKGQEGKPAINVRTEFGFTAPTKRPEMINSAQWAELYNEASGTNYYSPEVIQKYRDHSDPDLYPDVDWFDALFDDMAENQRVNLSVTGGGDNIKYYVSGSFYNESSIYKNAGNIYGYNSAIRYNKFNFRANVDLNVTKSTTLNVNLANIYEKSFGPGFGDNDNDIWSYTFNASPNAFPVQYSDGTLSGPSTDSGHNPWNMLVHSGYREQFWNSAQSLIGLTQDFGKIWEPLEGLTANIKFSWDAWNTTLQRRSKSPSFYHARGRDAEGRLMYDDNNNDGEWDPVHTGSESLGYEIGRQGTMTRYLEGSLNYNRLFGNHRVGALFLYNQKIHTNTQAADGNAALPYKNQGLAGRVTYAFRDTYFAEVNMGYNGSENFARGHRFGFFPAFALGWMVSNEKWFEPLTKTIDMLKLKGSYGKVGNDDIGGQRRWVYESTIVGTGDQGWWFGQSGNQGGAGIRVGEIENLYASWEEATKLNLGVEFSLFNKVKVQADYFREERQGIFLQRAGLPAIVGLSTIPYVNIGRTLNKGFDANVEYNHQIGKVFLTARGNFTFSRNKLLDNDEPDWEYKYQNRIGKPFGSDGQMQPFGLVALGLFQSQEEIDNSPRQTFGEYRVGDIKYQDINGDGIIDTQDEVAIGYTNLPEIMYGFGLGAQWKNWDINAFFQGSAHTSFFLDGVSVKSPFSSGNMERAAINKDLWGKVWMSTNSPEQNAHVTYPRLSNGSGGAGASNNNKNSTWWLRNGSFLRLKNIEIGYTLPKEFVTKTFIKSLRFYVSGNNLLTFSSFKLWDPEKAKGSSDGSGYPLNRVVTVGFNANF”, the “soluble on expression in E. coli” value is given as “not soluble”.

“IVGGYTCQENSVPYQVSLNSGYHFCGGSLINDQWVVSAAHCYKSRIQVRLGEHNINVLEGDEQFVNAAKIIKHPNFDRKTLNNNIMLIKLSSPVKLNARVATVALPSSCAPAGTQCLISGWGNTLSSGVNEPDLLQCLDAPLLPQADCEASYPGKITDNMVCVGFLEGGKDSCQGDSGGPVVCNGELQGIVSWGYGCALPDNPGVYTKVCNYVDWIQDTIAAN”: the “soluble on expression in E. coli” value is “soluble”.

For “KAFTPDEAARFYAAARADRWGWPLAFMLATGLRPGEALGLTWADVTMRGSAEGGTLAAVVHIERTRSVSGGRVYEDTPKTERGRRSLTVTGDAARLLLDARAQAEREAGARLRHNGREYQSTGYVFVTRAGTPYRPDNLRRPMARLCQAVGVPVLTPHKLRHTWASVQAAAGVPVEVLSAELGHAAPSFTRDTYRHVYESERASLTYDPLTPAAAPAPEPEPQGRKRV”, the “soluble on expression in E. coli” value is on record as “not soluble”.

Turning to “KDDKVASATDVQFETPLKIVEYPDPILRAKNKRIDIFDENLKNLVDAMFDVMYKTDGIGLSAPQVGLNVQLMVFNPAGEPGEGKEIVLVNPKIKKYSDKLVPFDEGCLSFPGIYAEVVRPQSVKIDARDITGERFSISLSRLPARIFQHEYDHLEGVLFFDRMTDQVLDSIREELEALEKKYEEKTGLPSPER”, the “soluble on expression in E. coli” value is “soluble”.

For “KEPEMRPLGAYDTEELIPVLDYLDQQKINYKLDGNTVSVESSEYNSIKLGMVRSGVNQATEAGDDILLQDMGFGVSQRLEQERLKLSRERQLAQAIEEMKQVRKARVLLALPKHSVFVRHNQEASASVFLTLSTGANLKQQEVDSIVDMVASAVPGMKTSRITVTDQHGRLLSSGSQDPASAARRKEQELERSQEQALREKIDSVLLPILGFGNYTAQVDIQMDFSAVEQTRKRFDPNTPSTRSEYALEDYNNGNMVAGIPGALSNQPPADASIPQDVAQMKDGSVMGQGSVRKESTRNFELDTTISHERKQTGTVARQTVSVAIKDRRQVNPDTGEVTYTPMSEGEINAIRQVLIGTVGFDQSRGDLLNVLSVKFAEPETEQLVDQPIWEHPNFND”, the “soluble on expression in E. coli” value is reported as “not soluble”.

Regarding “KGATFKEAEEHYHINALYLLAHSALESNWGRSKIAKDKNNFFGITAYDTTPYLSAKTFDDVDKGILGATKWIKENYIDRGRTFLGNKASGMNVEYASDPYWGEKIASVMMKINEKLGGKD”, the “soluble on expression in E. coli” value was “not soluble”.

For “KGSAFAPGITAGMGVKYKLKPRINVGIEYSFTGLLTDALDALTDKSVWLEDPYKINDSWVKNKDATGALVLRITYDFGLRKTFCNKQ”, the “soluble on expression in E. coli” value is “not soluble”.

The values above are taken from the DeepSol protein solubility set.
